Tested on: iron-deficiency-anemia-induced animals
Format: in vivo, Sprague-Dawley rats
Description: The composition containing porcine myoglobin prepared according to the present invention was administered to iron-deficiency-anemia-induced animals, whereby the effectiveness of the composition containing porcine myoglobin on alleviating anemia was evaluated. Specifically, after 2 weeks acclimation period, thirty 9-week old Sprague-Dawley rats (female) were divided into 3 groups of 10 rats per group, among which one group was fed with normal feed in an amount of 10% of body weight daily for […] (Group 1; control), and the remaining two groups were fed with iron-deficient feed in an amount of 10% of body weight daily for 6 weeks to induce iron-deficiency anemia (Group 2 and Group 3). After 6 weeks of feeding, it was confirmed that iron-deficiency anemia was induced in the individual rat belonging to Group 2 and Group 3. Then, one of the anemia-induced groups was orally administered once a day with saline alone (Group 2), and the other anemia-induced group was orally administered once a day with solution containing porcine myoglobin (0.1 mg Fe/500 μl solution, Group 3). The administration continued for 5 weeks. During 5 weeks of administration to Group 2 and Group 3, Group 1 was continuously fed with normal feed, and Group 2 and Group 3 were fed with iron-deficient feed. […] After 5 weeks of administration, blood was collected, and whether anemia was alleviated was evaluated.

[1] = female Sprague-Dawley rats on iron-deficient feed, oral once a day, 0.1 mg Fe/500 μl solution, 5 weeks

B1: porcine myoglobin: porcine myoglobin consisting of a globin of SEQ ID NO: 1 and a heme of formula 1, made with Escherichia coli (protein)
chain: MGLSDGEWQLVLNVWGKVEADVAGHGQEVLIRLFKGHPETLEKFDKFKHLKSEDEMKASEDLKKHGNTVLTALGGILKKKGHHEAELTPLAQSHATKHKIPVKYLEFISEAIIQVLQSKHPGDFGADAQGAMSKALELFRNDMAAKYKELGFQG
modifications: heme; Porcine myoglobin
Effectiveness at alleviating iron-deficiency anemia (conclusion from blood analysis after 5 weeks of administration): effective at alleviating iron-deficiency anemia | Blood test: Hematocrit [1]: 39.8 ± 1.0% | Blood test: Hemoglobin content [1]: 13.7 ± 0.6 g/dL | Weight of rats on 5 weeks after administration [1]: 327.2 ± 3.1 g

— patent publication US20230331816A1, “A METHOD FOR PREPARING PORCINE MYOGLOBIN USING ESCHERICHIA COLI” (iNtRON Biotechnology, Inc., priority 2020, published 2023)
